According to the supplement of paper PMC10126150:
± gives the standard deviation of the averaged measurements.

Tested on: ATP
Experiment: switch fluorescence ratio, 500 uM ATP over buffer (Cy3 cluster intensity, sum of 5 cycles each) (fold (ratio)); higher = stronger signal-on switching upon ATP binding; sequences stand for … in TCGTCGGCAGCGTCAGATGTGTATAAGAGACAGTTTTTTTTTTTTTTTTTTTTTTTTT…TC
Conditions: aptamer strand: ATP DNA aptamer (quencher-CACCTGGGGGAGTATTGCGGAGGAAGG + anchor), 100 nM annealed; ATP concentration: 500 uM
In short: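 Five buffer/ATP imaging cycles were run on Cy3-labelled switching-strand clusters on a modified Illumina MiSeq flow-cell, with NaOH stripping and re-annealing between cycles. In each cycle, clusters annealed to 100 nM quencher-labelled ATP aptamer were imaged in selection buffer, then after 15 min with 500 uM ATP at 22 °C. Per cluster, the fluorescence ratio is summed target-cycle over summed buffer-cycle Cy3 intensity, averaged per switch-domain sequence. Only clusters within 100-1000 RFU were kept.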
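Note: ATP exposure 15 min at 22 °C before imaging.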

| Sequence | switch fluorescence ratio |
| --- | --- |
| ATGGCGGATG | 1.01 ± 0.063 |
| ATGGCGGCGG | 1.01 ± 0.014 |
| ATGGCGTGGC | 0.986 ± 0.018 |
| ATGGCTTGGA | 0.996 ± 0.029 |
| ATGGGAAATC | 0.9978 ± 0.0044 |
| ATGGGACAGG | 0.999 ± 0.033 |
| ATGGGAGCCA | 1 ± 0.028 |
| ATGGGAGCTT | 1.01 ± 0.025 |
| ATGGGAGGGA | 1.01 ± 0.021 |
| ATGGGCAGGG | 0.9931 ± 0.0056 |
| ATGGGCAGGT | 0.985 ± 0.02 |
| ATGGGCCCCT | 0.987 ± 0.025 |
| ATGGGCGCGC | 0.982 ± 0.036 |
| ATGGGCGGGC | 1.01 ± 0.03 |
| ATGGGCGTTG | 0.9658 ± 0.0037 |
| ATGGGCTTTG | 0.9674 ± 0.0093 |
| ATGGGGACCT | 1.17 ± 0.17 |
| ATGGGGAGAA | 1.01 ± 0.029 |
| ATGGGGAGTT | 0.972 ± 0.022 |
| ATGGGGATCG | 0.99341 ± 0.00035 |
| ATGGGGATGT | 1.03 ± 0.079 |
| ATGGGGGAAT | 1.0184 ± 0.00041 |
| ATGGGGGAGT | 0.9768 ± 0.0031 |
| ATGGGGGCTA | 0.979 ± 0.068 |
| ATGGGGGGCG | 1.02 ± 0.053 |
| ATGGGGGGCT | 0.987 ± 0.028 |

| Sequence | switch fluorescence ratio |
| --- | --- |
| ATGGGGGTAT | 0.987 ± 0.019 |
| ATGGGGGTTT | 0.984 ± 0.042 |
| ATGGGGTCCA | 0.976 ± 0.042 |
| ATGGGGTGCT | 0.986 ± 0.035 |
| ATGGGGTTCT | 0.992 ± 0.022 |
| ATGGGGTTTC | 1.01 ± 0.051 |
| ATGGGTGAAG | 0.9848 ± 0.0096 |
| ATGGGTGTTG | 0.992 ± 0.022 |
| ATGGGTTGGG | 0.991 ± 0.017 |
| ATGGGTTGTG | 1 ± 0.03 |
| ATGGTAACGT | 1.01 ± 0.044 |
| ATGGTAAGGT | 1 ± 0.014 |
| ATGGTAGCCG | 0.981 ± 0.012 |
| ATGGTAGGTA | 1 ± 0.031 |
| ATGGTATGCT | 0.992 ± 0.022 |
| ATGGTATTTC | 0.9887 ± 0.0013 |
| ATGGTCGAGC | 0.9822 ± 0.0076 |
| ATGGTCGATG | 0.965 ± 0.02 |
| ATGGTCGGCA | 0.985 ± 0.034 |
| ATGGTGAGGC | 0.95 ± 0.018 |
| ATGGTGCCCC | 1.09 ± 0.049 |
| ATGGTGCTGA | 1.01 ± 0.014 |
| ATGGTGTCAG | 0.994 ± 0.046 |
| ATGGTGTGAG | 1.02 ± 0.016 |
| ATGGTGTGTG | 1.01 ± 0.033 |
| ATGGTTAGAT | 1.01 ± 0.017 |

| Sequence | switch fluorescence ratio |
| --- | --- |
| ATGGTTATCT | 1.01 ± 0.034 |
| ATGGTTCCCC | 1.03 ± 0.013 |
| ATGGTTCGCG | 1 ± 0.015 |
| ATGGTTGAGC | 1.03 ± 0.024 |
| ATGGTTGCAG | 0.9553 ± 0.004 |
| ATGGTTGGAC | 0.9925 ± 0.0094 |
| ATGGTTGGGG | 0.994 ± 0.031 |
| ATGGTTTGAG | 0.997 ± 0.026 |
| ATGGTTTTGC | 0.977 ± 0.029 |
| ATGGTTTTTG | 1.01 ± 0.013 |
| ATGTAAAAAC | 0.965 ± 0.029 |
| ATGTAAAATG | 1.04 ± 0.066 |
| ATGTAAAGTC | 1.018 ± 0.0031 |
| ATGTAAATTT | 1.01 ± 0.005 |
| ATGTACCGCG | 1.06 ± 0.016 |
| ATGTACGCGT | 0.995 ± 0.024 |
| ATGTAGTGGC | 0.995 ± 0.049 |
| ATGTATAAAG | 0.987 ± 0.03 |
| ATGTATAGAG | 1.03 ± 0.026 |
| ATGTATAGTT | 1.02 ± 0.017 |
| ATGTATCATA | 0.993 ± 0.025 |
| ATGTATGGGT | 0.992 ± 0.036 |
| ATGTATTCGA | 0.996 ± 0.027 |
| ATGTATTCGC | 0.983 ± 0.014 |
| ATGTATTGGT | 0.991 ± 0.026 |
